This data set deals with the molecule itself. The experiment in a line: native gel or EMSA; purified protein (3 μg/μL) incubated at 25 °C or 45 °C for 30 min, native-PAGE, silver-stained; self-association. On the technique in general: In EMSA bound probe runs differently from free probe, usually more slowly.

Results on 2 proteins are retold here after publication PMC6337079, “Exploring Novel Functions of the Small GTPase Ypt1p under Heat-Shock by Characterizing a Temperature-Sensitive Mutant Yeast Strain, ypt1-G80D” (International Journal of Molecular Sciences, 2019).

B1: Ypt1p (purified bacterially expressed recombinant) (natural protein)
chain: not shown
notes: Ypt1p, Rab family small GTPase of Saccharomyces cerevisiae, from the plasmid pGEX-YPT1; monomer printed as 23.5 kDa; also called native Ypt1p; wild-type Ypt1p; source: E. coli BL21(DE3)pLysS, purified (GSH-agarose, thrombin cleavage, TSK heparin-5PW HPLC, ATP-agarose)
Take B1: the binding result is reported as “binds”.

B2: Ypt1p^G80D (purified bacterially expressed recombinant) (natural protein)
chain: not shown
notes: Ypt1p of Saccharomyces cerevisiae with G80D, from the plasmid pGEX-ypt1^G80D (pGEX-2T, BamHI/HindIII insert); source: E. coli BL21(DE3)pLysS, purified (GSH-agarose, thrombin cleavage, TSK heparin-5PW HPLC, ATP-agarose)
In the case of B2, the binding result is reported as “binds”.
